From patent US20230374104A1 (SEATTLE CHILDREN S HOSPITAL DBA SEATTLE CHILDREN S RESEARCH …, published 2023) come the findings set out here.

By Kd is commonly meant the equilibrium constant for the complex coming apart. Lower therefore signals higher affinity.

The target of test [1] is soluble PD-L1 (UniProt Q9NZQ7). Nature of the test: cell binding (H9 cells); printed as pg/ul.
Test [2] has as its target T1, soluble PD-L1 (UniProt Q9NZQ7 19-238, limits assumed).
T1 construct: also called PD1-L1
Nature of the test: competitive binding assay: mixed H9 cells expressing PD1(WT):CD28 (cell trace violet positive) and PD1(A99L):CD28 (negative), incubated with soluble PD-L1 (0.02 pg/uL to 20 ng/ul) for 30 min, streptavidin-APC, flow cytometry. The protocol:
A competitive binding assay was performed to determine relative binding affinity between PD1 chimeric polypeptides, in particular PD1(WT):CD28 polypeptide, and the PD1(A99L):CD28 polypeptide.
A population of H9 cells containing PD1(WT):CD28 polypeptide were labeled with cell trace violet were mixed with a population of H9 cells containing PD1(A99L):CD28 polypeptide. The cells were then incubated with soluble PD-L1 (0.02 pg/uL to 20 ng/ul) for 30 min and then stained with streptavidin-APC. The two populations were separated out by flow analysis into cell trace violet positive (H9 cells containing PD1(WT):CD28 polypeptide) and cell trace violet negative (H9 cells containing PD1(A99L):CD28 polypeptide) populations. The populations were analyzed for APC positivity.
On the technique in general: A flow cytometer gives signals particle by particle.

Chain of soluble PD-L1 (UniProt Q9NZQ7) (Q9NZQ7 19-238): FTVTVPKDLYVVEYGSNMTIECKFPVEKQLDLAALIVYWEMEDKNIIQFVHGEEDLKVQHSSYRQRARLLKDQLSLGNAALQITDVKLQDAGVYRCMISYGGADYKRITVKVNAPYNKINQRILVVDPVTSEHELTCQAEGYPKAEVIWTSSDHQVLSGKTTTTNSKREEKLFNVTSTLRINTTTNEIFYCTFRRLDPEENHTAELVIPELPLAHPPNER
T1 sequence (Q9NZQ7 19-238 limits assumed): as the sequence (Q9NZQ7 19-238) above

Molecule PD1(WT):CD28 polypeptide came in with a Kd in test [1] of 0.029 µg/mL.

In test [1], PD1(A99L):CD28 polypeptide showed a Kd of 0.0033 µg/mL.

B1: PD1(A99L):CD28 polypeptide (receptor)
chain: LDSPDRPWNPPTFSPALLVVTEGDNATFTCSFSNTSESFVLNWYRMSPSNQTDKLAAFPEDRSQPGQDCRFRVTQLPNGRDFHMSVVRARRNDSGTYLCGAISLAPKLQIKESLRAELRVTERRAEVPTAHCPSPLFPGPSKPFWVLVVVGGVLACYSLLVTVAFIIFWVRSKRSRLLHSDYMNMTPRRPGPTRKHYQPYAPPRDFAAYRS
notes: Position 99 is not counted from the initiating Met of the encoded open reading frame, where the changed alanine appears to lie near position 132
With B1, the “fold binding affinity relative to PD1(WT):CD28 polypeptide” value in test [2] is approximately 9 fold.
